Data: US10973857B2, “Mesenchymal stem cell and use thereof for treatment of muscle injury and muscle-associated diseases” (EXOSTEM BIOTEC LTD., priority 2016, dated 2021)

B1: PDGFBB: growth factor (protein, UniProt P01127 82-190, looked up)
Platelet-derived growth …: SLGSLTIAEPAMIAECKTRTEVFEISRRLIDRTNANFLVWPPCVEVQRCSGCCNNRNVQCRPTQVQLRPVQVRKIEIVRKKPIFKKATVTLEDHLACKCETVAAARPVT
modifications: BB homodimer
notes: growth factor
B2: EGF: growth factor (protein, UniProt P01133 23-1207, looked up)
Pro-epidermal growth factor: PQHWSCPEGTLAGNGNSTCVGPAPFLIFSHGNSIFRIDTEGTNYEQLVVDAGVSVIMDFHYNEKRIYWVDLERQLLQRVFLNGSRQERVCNIEKNVSGMAINWINEEVIWSNQQEGIITVTDMKGNNSHILLSALKYPANVAVDPVERFIFWSSEVAGSLYRADLDGVGVKALLETSEKITAVSLDVLDKRLFWIQYNREGSNSLICSCDYDGGSVHISKHPTQHNLFAMSLFGDRIFYSTWKMKTIWIANKHTGKDMVRINLHSSFVPLGELKVVHPLAQPKAEDDTWEPEQKLCKLRKGNCSSTVCGQDLQSHLCMCAEGYALSRDRKYCEDVNECAFWNHGCTLGCKNTPGSYYCTCPVGFVLLPDGKRCHQLVSCPRNVSECSHDCVLTSEGPLCFCPEGSVLERDGKTCSGCSSPDNGGCSQLCVPLSPVSWECDCFPGYDLQLDEKSCAASGPQPFLLFANSQDIRHMHFDGTDYGTLLSQQMGMVYALDHDPVENKIYFAHTALKWIERANMDGSQRERLIEEGVDVPEGLAVDWIGRRFYWTDRGKSLIGRSDLNGKRSKIITKENISQPRGIAVHPMAKRLFWTDTGINPRIESSSLQGLGRLVIASSDLIWPSGITIDFLTDKLYWCDAKQSVIEMANLDGSKRRRLTQNDVGHPFAVAVFEDYVWFSDWAMPSVMRVNKRTGKDRVRLQGSMLKPSSLVVVHPLAKPGADPCLYQNGGCEHICKKRLGTAWCSCREGFMKASDGKTCLALDGHQLLAGGEVDLKNQVTPLDILSKTRVSEDNITESQHMLVAEIMVSDQDDCAPVGCSMYARCISEGEDATCQCLKGFAGDGKLCSDIDECEMGVPVCPPASSKCINTEGGYVCRCSEGYQGDGIHCLDIDECQLGEHSCGENASCTNTEGGYTCMCAGRLSEPGLICPDSTPPPHLREDDHHYSVRNSDSECPLSHDGYCLHDGVCMYIEALDKYACNCVVGYIGERCQYRDLKWWELRHAGHGQQQKVIVVAVCVVVLVMLLLLSLWGAHYYRTQKLLSKNPKNPYEESSRDVRSRRPADTEDGMSSCPQPWFVVIKEHQDLKNGGQPVAGEDGQAADGSMQPTSWRQEPQLCGMGTEQGCWIPVSSDKGSCPQVMERSFHMPSYGTQTLEGGVEKPHSLLSANPLWQQRALDPPHQMELTQ
modifications: Pro-epidermal growth factor

System: MSCs
Test: Protocol 3 differentiation of MSCs to hybrid cells with growth factors
Format: cell-based
Conditions: individually and in combination, as replacements or in combination with HGF and PDGF
Procedure: A shortened third protocol (Protocol 3) was examined and was also found to produce MSC-muscle cell hybrid cells. The MSCs were cultured in normal MSC culturing conditions followed by supplementation of the media for 24 hours with 5-AZA. The cells were than grown in media supplemented with 2% horse serum and HGF and PDGF for 2 weeks. […] The following growth factors were tested both individually and in combination as replacements or in combination with HGF and PDGF: EGF, IGF1, PDGFAA, PDGFBB, and VEGF. […] Additionally, the protocol could be halted by moving the treated MSCs to non-supplemented MSC media. Hybrid cells that were produced could thus be halted from further differentiation.
All three protocols were also performed with MSCs that had first undergone myogenic priming as described above.

Molecule	production of hybrid cells from MSCs
B1	found to produce hybrid cells
B2	found to produce hybrid cells
